From the DeepSol protein solubility set

Test: soluble on expression in E. coli; label from the status in PepcDB or PDB records

Sequence | soluble on expression in E. coli
MSNEKFNNVPKPAGNGPHTPEDHAIKGELTFEDKVVQKIIGLALENVDGLLTVDGGFFSNIAEKLVNTDNVTAGIDTEVGKKQVAVDMDIVVEYGKDIQDIYEKMKELISREVKKMTHLDVIEVNVNVVDIKSKEEYEEDSETVQDKVTGAAKSTGEFASEQTEKAKKAVNKGTEQVKENMEPRVELEHHHHHH | soluble
MSNIKKYIIDYDWKASIEIEIDHDVMTEEKLHQINNFWSDSEYRLNKHGSVLNAVLIMLAQHALLIAISSDLNAYGVVCEFDWNDGNGQEGWPSMDGSEGIRITDIDTSGIFDSDDMTIKAA | soluble
MSNNNTSIHDFDFSFICNYFKLLKRQGPGSPEATRKAVSFINELTDDAKIADIGCGTGGQTLFLADYVKGQITGIDLFPDFIEIFNENAVKANCADRVKGITGSMDNLPFQNEELDLIWSEGAIYNIGFERGMNEWSKYLKKGGFIAVSEASWFTSERPAEIEDFWMDAYPEISVIPTCIDKMERAGYTPTAHFILPENCWTEHYFAPQDEVRETFMKEHAGNKTAMDFMKGQQYERSLYSKYKDYYGYVFYIGQKRLEHHHHHH | soluble
MSNRKLSPDKTQPIYAPNNAFLDECVRVEIINILPLKVLRPAVKESTKYHQILASIQDVGLVEPPAVTPAPGTSGQYFLLDGHLRIEVLKDLGELKVDCLVATDDDTYSYNKRTNRLSAVQSNKMIVRAMERGVSAERLGKALGLSPQTIRQRFRLLNGICAEVVALLGDTDCPANVFNLLRQMKPLRQIEAAELMIGNKNLSVLLAKALLAATPPDQLVMIKKPSQDHQVSAESMARLERELAALQMQIKTVEEDYGPDVLHLTVIKGYLTKLLANAAVVRWLARHQPEYLKEFQSIAELTELPWADNGPEDDLQSTTAEG | not soluble
MSNTDNSDKNTKPTGYRPPQTDFNTEFGNNLDYPRLGSVSFRRGTLTDNQESLWDANWPILGKDLTDAEDQRIDVAEWFGRCGHKTILEIGSGTGTSTAAMAPLEADTNIIAVELYKPGLAKLLGAVVRGDISNVRMIRGDGVEVLTRMLPEESLDGVRIYFPDPWPKARHHKRRIIQSGVLNLIASRLKPGGVLHVATDHADYAEWITELVNVEPQLEFMGWPWDECPQLTDRQVITKFEGKGLDKDHTITEFLWRRK | not soluble
MSPIMARKPQIQAEQLAQKFVEKPEEQKDKQAVQKGQQLEGAKRWVADSELREQPVNSMQQVEHGPKAVILADDACWQTQRRVPAEIQLPQVGKISIPELSEKEIQRTIVAQPASYHKVQWNEFPEEPKYEIGAVPKTKTQDWVPVNNEQNELQRSIYKPARMSAVWPPPQDELVKDGHSPLVVKANEDTAWIQQDQNGVLKQAVWGKTSRINRVWPPPENESTLSDFGPQHMPVVQWPPPEAEAHEREQVEVLQKHIPTKKMERQWPPPPPQYQVVESSGEIETRYNPAEVDQQQQAVNSLRMGHIQA | not soluble
MSPTSRPATGASLSAARRSREVADTVGGPVVDVLVVGLGATGAGAALDAAARGLGVVAVDAHDLAFGTSRWSSKLIHGGLRYLASGQLDVAHESAVERGVLMERTAPHLVRAQPFVLPLTPLVSRGQGALAWAGFRAGDTLRLAARTARATLPAPRRLSAVETRHLAPALRSDRLRGGLLSWDGRLADDARLVTALARTAAARGARILTRVRALELTGSGARVRDETTGEEGVIRARAVVNASGVWAGDLVDGIRIRPSRGTHLVLRSDRLGPLPAGLHVPIPGETNRFVLVLPQDDGRVYVGLTDEPVDGDVPDVPEVPETDVGFLLDVLGSVLDVPVHREDVVGAFAGLRPLLDTAPSDRPGAAPRTADVSRRHAVLTSSEGVITVVGGKLTTYRRMAEDAVDAAVAARGLAAGPSPTAALPLVGAAAPHTLAGVRAPRRLVRRYGTEAPAVQALASREPCLAERVLPGHPVTGAELVWALRHEGALDEADLLDRRTRVGLVPEDRAAALGAVRDLVGEVTADPRLEHHHHHH | not soluble
MSQGYAIELYFDPALENQVLKAWNVFARRQISTYLINNESRPHITLFSTTSSIDSTKLEPIIKSFSSKQEPISLSFSSIGSFSSDDNALFLSPTPSLSLIQLQLQLCEVIKKEGFEIGEEYRVDSWVPFCSVAVDVPKSRISEGFLVLRDLKLLVYGYAMDIGLVEFSPVREVFSFGLGNNLES | soluble
MSQLYAQEPRLGIPDSMLRYGTVVTMEQGDTVYDIALPQVWVKHKKYKSRQLTPQERQELWRLIRDVKRTLPYAKMIAATLIETYEYMETMPDEKSRQKHLKRMEKEMKQQYMPEMKRLTLRQGKLLIKLIDRQCAQSSYQLLKAFLGGWKAGWWNLFARFYGASLKTRYEPDKNPEDALTERIVLLVEEKRI | not soluble
MSQMSPGQARVVDPILSTHARGYRQSTLIGKKLFPVAPVAQYGGKILTFGKEAFRLYNTKRAPGANTKRIDFGYEGDPYSIVPSALEAKVPRELMRDASQVPGIDLGARSVNTVLRIMALAHEHECAQIALDPAKYNADHKVKLVGSARWTSPDSDPTKDVETAKEAIADSIGMEPNRLMLSRKALSACKYHPKLIERVKYTRAESITIDMLKALWEVEEIVVGTARVATGANDSFGDVWGPDVWLGYVSDNPDPSVEEPSFGYTYQIEGHPLVEVPYWDNNAKSWIYGVSDDNTPALSGMLAGYLIEDAGLPAALEHHHHHH | soluble
MSQNATVNVDIKLGVNKFHVDEGHPHIILTENPDINEFRKLMKACPAGLYKQDDVGNIHFDPAGCLECGTCRVLCGNTILEQWQYPAGTFGIDFRYG | not soluble
MSQSNHPGGKDAGSIPRVLISADRSSSGKTTISMGLMAALVSRGYKVQPFKVALDYIDPSYHTEITGRFCRNLDGYLMDEHGILDVYTHACETGGGADIAIIEGVRGLFEGFESLSDVGSTAQIAKILKCPVVFVINARSITRSAAALIGGYKNFDPDVEIAGVILNNIGGRRHAQKAKEAIEHYTGVPVLGIIPRDPSMQISMRHLGLMPALEGRRRFGDGGFENRLHGIEEIINKGIDVDRFLGIAESAKPLTALENSIFSPAVNENSQKPKIGVALDEAFNFYYRDNIDLLEIAGAEIVYFSPVNDPGLPEVDGLYIGGGYPELFAAELEANETMRKSIKEASAAGMPIYAECGGLMYLTEKISTGVPGKGTYHDASMPESTYSMVGALPGHTIMGQTRVVSYNIGTLARDCPIGKKGNSFKGHEFHHSEILEIPDDAEFAIALTRGTGIRGDRDGLIVNNTIGSYAHLHGVAYRELAGSLVEAARKFRDSRVSSLEHHHHHH | soluble
MSRARCERCLRPAGHCLCPLIPQLPSRTRVLLLQHPSEVNHALNTARLAALGLNNAELVVGEVFEELPALLDQPGYRACLLFPADDARPLQAYAETDVPLLLVVPDGTWRKARKLLHLNPLLAALPRVTLATGVESRYRLRKAPGPGALSTVEAIVQALQVLEAPASFEPLLRPFEALIEGQIAAMGEDTYQRNHAKSAAALEHHHHHH | not soluble
MSRAVSRLIEACGRLSITQRSQMHFFRPPPTSSILPPLVTPSTTIVEKSIELPSLENPQQIYTFPTLHRSPIVAPGAILTEILEKLAPTAEKGFLIAPGTPNKSPMWLSPRLLTIRRKKMKKHKRRRRYDRDFFKYQKYHREKKLKSEREFQKRMKSLLTELEAFNPEKYVKDTIRMANKEWQDELAPTGRKLYPHWSRFMSLEQLYGLPKSEYIDKRAGLPTPEEAEQIKALKEKYAKLYRKK | soluble
MSRFFHAKEDSDSDTSSSEDEVEDQKVNKSAKFRDDLDFMAGPEEDEKRVVRAQKDKKFDELKGIIKQNRDAKSNKDLNRLLTGFDSLAKAYDKSKTVFQRQNVANPRFYIRSLVEIEDYVNKLWDDKDAKSALSKNNAKALPPLRQKLKKYIKDQQLQDLVTDYRVNPDEDGYETPEDEDDDDFGEVSESKAEKSPGKPSEKAAVSDSDSDSDDDDSSNWSSEPESNSSDDEDSVTKMEQLRRYFLKKEFRVESKDDKKEKKKRVIRVKEAVEEDDDADWTPVNREKSVVHFDPKEEVTHDVMIKKLNEVMSARGKRTTDRNQHVANLRKLLEVSEEKELGLGINVKISFCIISALFELNAKISDHMEYETFMTTLQTVNSLLDLLIGTDRVKLSVTYAEEDENLKDDTQEYRIQGSILIAVQRLDGELAKILQNADCHSNDYIEKLKAEKDMCSLIEKAEKYVELRNDSGIFDKHEVCKVYMMRIEHAYYKYQDQNEEDAGKLMDYLCNKIYTLDDEKRLRQRAMLCHVYYLAVHDKWHRARDLLLMSHMQAIVDHSDVDTQILYNRTICQLGLCAFRHGFIREAHQGLSEIQNTQRAKELLAQAVGTRQHEKTAEQEKIDRSRQVPYHMHINVELMECVYLICSMLLEIPHMASCEFEMRRRMLSRSFHYQLKQSEKASLTGPPENTREHVVAASKAMLNGDWKKCQDYIVNDKMNQKVWNLFHNAETVKGMVVRRIQEESLRTYLLTYSTVYATVSLKKLADLFELSKKDVHSIISKMIIQEELSATLDEPTDCLIMHRVEPSRLQMLALNLSDKLQTLAENNEQILEPRTGRGGYQGPGSWFPGRNERQGDKQKGSGGYQGERRGGQGQDGKRGNWGSQGGQQRRHPQKPRAF | not soluble
MSRFNPSPVSLSVTLGLMFSASAFAQDATKTDETMVVTAAGYAQVIQNAPASISVISREDLESRYYRDVTDALKSVPGVTVTGGGDTTDISIRGMGSNYTLILVDGKRQTSRQTRPNSDGPGIEQGWLPPLQAIERIEVIRGPMSTLYGSDAIGGVINIITRKDQQQWSGNVQLSTVVQENRASGDEQSANFFVTGPLSDALSLQVYGQTTQRDEDEIEHGYGDKSLRSLTSKLNYQLNPDHQLQLEAGVSAQDRENNVGKSAQSSGCRGTCSNTDNQYRRNHVAVSHQGDWQDVGQSDTYLQYEENTNKSREMSIDNTVFKSTLVAPIGEHMLSFGVEGKHESLEDKTSNKISSRTHISNTQWAGFIEDEWALAEQFRLTFGGRLDHDKNYGSHFSPRVYGVWNLDPLWTVKGGVSTGFRAPQLREVTPDWGQVSGGGNIYGNPDLKPETSINKELSLMYSTGSGLAASLTAFHNDFKDKITRVACPANICTAGPNQWGAAPTYRVNIDEAETYGAEATLSLPITESVELSSSYTYTHSEQKSGNFAGRPLLQLPKHLFNANLSWQTTDRLNSWANLNYRGKEMQPEGGASNDDFIAPSYTFIDTGVTYALTDTATIKAAVYNLFDQEVNYAEYGYVEDGRRYWLGLDIAF | not soluble
MSRFWSRWYSGLVSCTARVIMIDLNHLDTIANRLSDLLPPALYESRGELQTLFKDVLQAGLAKLDLVTREEFEIQRVILLSTREKLETLLHTLVLLEDRLTDQGKNLEHHHHHH | not soluble
MSRIVAIDYGRKRTGIAVSDTLQLIANGLTTVPTHELLNFIGGYVAKEPVERIIIGLPKQMNNEASENMKNIEPFVRSLKKRFPELPVEYVDERFTSVLAHRTMLEAGLKKKDRQNKALVDEISATIILQTYLESKRF | not soluble
MSRIVNVKLSLKRYEYEKPFHITGSVSSESRNVEVEIVLESGVKGYGEASPSFRVNGERVEALLAIENAVREMITGIDVRNYARIFEITDRLFGFPSLKAAVQFATLDALSQELGTQVCYLLGGKRDEIETDKTVGIDTVENRVKEAKKIFEEGFRVIKIKVGENLKEDIEAVEEIAKVTRGAKYIVDANMGYTQKEAVEFARAVYQKGIDIAVYEQPVRREDIEGLKFVRFHSPFPVAADESARTKFDVMRLVKEEAVDYVNIKLMKSGISDALAIVEIAESSGLKLMIGCMGESSLGINQSVHFALGTGAFEFHDLDSHLMLKEEVFRGKFIQDGPRMRVKDQ | soluble
